Series [1] can be described thus: Substrate specificity, chemiluminescence with h-CTZ. Type of series: biochemical. The note with it: compared with coelenterazine. Here is the method: bFP-aq, e-bFP-aq, and h-bFP-aq (0.25 μg) prepared in Example 2 were individually dissolved in 100 μl of 50 mM Tris-HCl (pH 7.6) containing 5 mM dithiothreitol (DTT) and 1 μg/μl coelenterazine and its analog were added to each solution. Each chemiluminescence in the steady reaction state (after 10 min) was measured with a luminometer (AB-2200; manufactured by Atto Co., Ltd.).

For series [2] the following is noted: when calcium ions bind; cited from earlier work.
Series [3] can be described thus: Recoverability of fluorescence-generating ability after heating at 90° C. The note with it: heated at 90° C. for 3 min. Type of series: physicochemical. How it is done: The thermal stability of bFP-aq prepared in Examples 2 was compared with that of gFP-aq prepared Example 3. The solution containing bFP-aq or gFP-aq with a protein concentration of 0.26 mg/ml was heated at 90° C. for 3 min and allowed to stand at 24° C. Subsequently, each fluorescence generation intensity was measured with a spectrofluorometer.

These results are taken from patent publication US8710195B2, “Fluorescent proteins” (JNC Corporation, priority 2003, dated 2014).

For the compound `O=c1c(Cc2ccccc2)nc2c(Cc3ccccc3)[nH]c(-c3ccc(O)cc3)cn1-2` [h-coelenterazine], the “Quality as luminescent substrate of the bFPs” value in series [1] is “serves as a luminescent substrate better than coelenterazine”.

Take aequorin: the “maximum wave length of blue light emission” value in series [2] was 465-470 nm. In addition, the “Ability to emit light due to the addition of calcium ions after heat treatment” value in series [3] is “completely been lost”.
